Assay results as given in patent publication US20220323445A1, “REDUCING IMMUNOGENICITY TO PEGLOTICASE” (Horizon Therapeutics Ireland DAC, priority 2020, published 2022).

Test system: serum uric acid (sUA)
Experiment: Serum uric acid (sUA) levels and sUA responders, open-label study of pegloticase with MTX (NCT03635957)
Assay type: in vivo, human
Method: The primary objective is to estimate the response rate during Month 6 (Weeks 20, 22, and 24), as measured by the sustained normalization of serum uric acid (SUA) to <6 mg/dL for at least 80% of the time during Month 6 in subjects receiving KXX with MTX.
The primary efficacy outcome endpoint is the sustained normalization of SUA to <6 mg/dL for at least 80% of the time during month 6 (weeks 20, 22, and 24) in subjects receiving KXX with MTX. This is slightly below the urate solubility threshold and this threshold has been the accepted standard for nearly all modern gout trials. Participants who achieve this endpoint were classified as “responders.” Serum uric acid (SUA) responders may also be defined as participants achieving and maintaining SUA <6 mg/dL for at least 80% of the time during Month 6 (Weeks 20, 22, and 24).
Blood samples may be collected prior to each pegloticase infusion for measurement of SUA levels using the Beckman Coulter AU System Uric Acid procedure. Participants were declared “non-responders” if there were SUA measures >6 mg/dL at 2 consecutive study visits beginning with the week 2 visit. […] If the SUA goal is not maintained before or at the 12-week mark, it was assumed that the participant had developed clinically relevant anti-pegloticase antibody and they received no further infusions. This assumption and subsequent discontinuation of pegloticase was consistent with the protocol of large phase III randomized controlled trials and the product label. A formal stopping rule was 2 occasions of SUA levels of greater than 6 mg/dL.
Clinical Chemistry—Blood samples were collected prior to each pegloticase infusion for measurement of SUA levels (primary efficacy parameter) using the Beckman Coulter AU System Uric Acid procedure. In this procedure uric acid is converted to hydrogen peroxide. Hydrogen peroxide reacts with reagent to produce a chromophore which is read bichromatically at 660/800 nm. The amount of dye formed is proportional to the uric acid concentration in the sample.
Serum samples for measurement of SUA levels were collected at the Screening Visit, the Week −4 Visit (prior to the first dose of MTX), and the Week −2 Visit during the MTX Run-in Period; within 48 hours prior to each pegloticase infusion and after the end of each pegloticase infusion prior to discharge from the site during the Pegloticase+IMM Period; at the non-infusion Week 52/End of Study/Early Termination Visits and at the Post Treatment 3 and 6 Month Follow-up Visits. Additional serum samples for SUA levels were collected at optional non-infusion (Frequent Sampling) Visits at Weeks 1 and 7. […] Subjects with SUA level >6 mg/dL at 2 consecutive visits beginning at Week 2 visit discontinued treatment, completed the End of Pegloticase Infusion Visit procedures within 2 weeks and continued the subject visits according to the protocol (without treatment).
Efficacy analyses were performed using the modified intention-to-treat (mITT) population, defined as all enrolled subjects who received ≥1 dose of pegloticase. The proportion of Month 6 responders was summarized, along with a 95% confidence interval for the proportion. The proportion of Month 3 and overall (Months 3 and 6 combined) responders was analyzed similarly.
A subject was declared a non-responder if the subject had SUA level >6 mg/dL at 2 consecutive study visits beginning with the Week 2 Visit. In addition, a subject who withdraws from study treatment for any reason after the first dose of pegloticase in the KXX+MTX Period and prior to Month 6 (for the primary endpoint) or Month 3 (for the secondary endpoint) was considered a non-responder if SUA values were not collected at the planned time points.
Patients were administered oral MTX (15 mg/week) and folate (1 mg/day) 4 weeks prior to the first pegloticase infusion (Day 1) and throughout the pegloticase treatment period. […]

[1] = Week 44 - Pre-Infusion, mITT, n=3
[2] = Week 46 - Pre-Infusion, Month 6 sUA Responders
[3] = Week 46 - Pre-Infusion, mITT, n=2
[4] = Week 48 - Post-Infusion, Month 6 sUA Responders
[5] = Week 48 - Post-Infusion, mITT, n=3
[6] = Week 48 - Pre-Infusion, Month 6 sUA Responders
[7] = Week 48 - Pre-Infusion, mITT, n=2
[8] = Week 50 - Post-Infusion, Month 6 sUA Responders
[9] = Week 50 - Post-Infusion, mITT, n=3
[10] = Week 50 - Pre-Infusion, Month 6 sUA Responders
[11] = Week 50 - Pre-Infusion, mITT, n=2
[12] = Week 52/ET, Month 6 sUA Responders

B1: pegloticase (protein)
chain: TYKKNDEVEFVRTGYGKDMIKVLHIQRDGKYHSIKEVATTVQLTLSSKKDYLHGDNSDVIPTDTIKNTVNVLAKFKGIKSIETFAVTICEHFLSSFKHVIRAQVYVEEVPWKRFEKNGVKHVHAFIYTPTGTHFCEVEQIRNGPPVIHSGIKDLKVLKTTQSGFEGFIKDQFTTLPEVKDRCFATQVYCKWRYHQGRDVDFEATWDTVRSIVLQKFAGPYDKGEYSPSVQKTLYDIQVLTLGQVPEIEDMEISLPNIHYLNIDMSKMGLINKEEVLLPLDNPYGKITGTVKRKLSSRL
modifications: monomethoxy PEG conjugated; Krystexxa Sequence
notes: covalent conjugate of uricase produced by a genetically modified strain of Escherichia coli and monomethoxypoly (ethylene glycol)
sUA < 6 mg/dL, n (%) [1]: 3 (100%) | sUA Change from Baseline, Mean (SD) [1]: −10.55 (4.625) mg/dL | sUA Change from Baseline, Median [1]: -9.80 mg/dL | sUA Observed, Mean (SD) [1]: 1.05 (1.305) mg/dL | sUA Observed, Median [1]: 0.30 mg/dL | sUA < 6 mg/dL, % [2]: (100%) | sUA Change from Baseline, Mean [2]: -12.65 mg/dL | sUA Change from Baseline, Median [2]: -12.65 mg/dL | sUA Observed, Mean [2]: 0.30 mg/dL | sUA Observed, Median [2]: 0.30 mg/dL | sUA < 6 mg/dL, n (%) [3]: 2 (100%) | sUA Change from Baseline, Mean (SD) [3]: −12.65 (4.031) mg/dL | sUA Change from Baseline, Median [3]: -12.65 mg/dL | sUA Observed, Mean (SD) [3]: 0.30 (0.000) mg/dL | sUA Observed, Median [3]: 0.30 mg/dL | sUA < 6 mg/dL, % [4]: (100%) | sUA Change from Baseline, Mean [4]: -10.33 mg/dL | sUA Change from Baseline, Median [4]: -9.80 mg/dL | sUA Observed, Mean [4]: 1.60 mg/dL | sUA Observed, Median [4]: 0.30 mg/dL | sUA < 6 mg/dL, n (%) [5]: 3 (100%) | sUA Change from Baseline, Mean (SD) [5]: −10.33 (4.922) mg/dL | sUA Change from Baseline, Median [5]: -9.80 mg/dL | sUA Observed, Mean (SD) [5]: 1.60 (2.252) mg/dL | sUA Observed, Median [5]: 0.30 mg/dL | sUA < 6 mg/dL, % [6]: (100%) | sUA Change from Baseline, Mean [6]: -12.65 mg/dL | sUA Change from Baseline, Median [6]: -12.65 mg/dL | sUA Observed, Mean [6]: 0.30 mg/dL | sUA Observed, Median [6]: 0.30 mg/dL | sUA < 6 mg/dL, n (%) [7]: 2 (100%) | sUA Change from Baseline, Mean (SD) [7]: −12.65 (4.031) mg/dL | sUA Change from Baseline, Median [7]: -12.65 mg/dL | sUA Observed, Mean (SD) [7]: 0.30 (0.000) mg/dL | sUA Observed, Median [7]: 0.30 mg/dL | sUA < 6 mg/dL, % [8]: (100%) | sUA Change from Baseline, Mean [8]: -10.57 mg/dL | sUA Change from Baseline, Median [8]: -9.80 mg/dL | sUA Observed, Mean [8]: 1.37 mg/dL | sUA Observed, Median [8]: 0.30 mg/dL | sUA < 6 mg/dL, n (%) [9]: 3 (100%) | sUA Change from Baseline, Mean (SD) [9]: −10.57 (4.598) mg/dL | sUA Change from Baseline, Median [9]: -9.80 mg/dL | sUA Observed, Mean (SD) [9]: 1.37 (1.848) mg/dL | sUA Observed, Median [9]: 0.30 mg/dL | sUA < 6 mg/dL, % [10]: (100%) | sUA Change from Baseline, Mean [10]: -12.65 mg/dL | sUA Change from Baseline, Median [10]: -12.65 mg/dL | sUA Observed, Mean [10]: 0.30 mg/dL | sUA Observed, Median [10]: 0.30 mg/dL | sUA < 6 mg/dL, n (%) [11]: 2 (100%) | sUA Change from Baseline, Mean (SD) [11]: −12.65 (4.031) mg/dL | sUA Change from Baseline, Median [11]: -12.65 mg/dL | sUA Observed, Mean (SD) [11]: 0.30 (0.000) mg/dL | sUA Observed, Median [11]: 0.30 mg/dL | sUA < 6 mg/dL, % [12]: (100%) | sUA Change from Baseline, Mean [12]: -12.65 mg/dL | sUA Change from Baseline, Median [12]: -12.65 mg/dL | sUA Observed, Mean [12]: 0.30 mg/dL | sUA Observed, Median [12]: 0.30 mg/dL | sUA < 6 mg/dL, n (%) (Week 52/ET, mITT, n=2): 2 (100%) | sUA Change from Baseline, Mean (SD) (Week 52/ET, mITT, n=2): −12.65 (4.031) mg/dL | sUA Change from Baseline, Median (Week 52/ET, mITT, n=2): -12.65 mg/dL | sUA Observed, Mean (SD) (Week 52/ET, mITT, n=2): 0.30 (0.000) mg/dL | sUA Observed, Median (Week 52/ET, mITT, n=2): 0.30 mg/dL
